{
  "source": "paper PMC11986143",
  "about": "(Nature Communications, 2025)",
  "molecular_target": "integrin αvβ3 on bEnd.3 vesicles (mouse (endogenous in bEnd.3), UniProt P43406 31-1044; O54890 26-787)",
  "sequence (P43406 31-1044, chain 1 of 2)": "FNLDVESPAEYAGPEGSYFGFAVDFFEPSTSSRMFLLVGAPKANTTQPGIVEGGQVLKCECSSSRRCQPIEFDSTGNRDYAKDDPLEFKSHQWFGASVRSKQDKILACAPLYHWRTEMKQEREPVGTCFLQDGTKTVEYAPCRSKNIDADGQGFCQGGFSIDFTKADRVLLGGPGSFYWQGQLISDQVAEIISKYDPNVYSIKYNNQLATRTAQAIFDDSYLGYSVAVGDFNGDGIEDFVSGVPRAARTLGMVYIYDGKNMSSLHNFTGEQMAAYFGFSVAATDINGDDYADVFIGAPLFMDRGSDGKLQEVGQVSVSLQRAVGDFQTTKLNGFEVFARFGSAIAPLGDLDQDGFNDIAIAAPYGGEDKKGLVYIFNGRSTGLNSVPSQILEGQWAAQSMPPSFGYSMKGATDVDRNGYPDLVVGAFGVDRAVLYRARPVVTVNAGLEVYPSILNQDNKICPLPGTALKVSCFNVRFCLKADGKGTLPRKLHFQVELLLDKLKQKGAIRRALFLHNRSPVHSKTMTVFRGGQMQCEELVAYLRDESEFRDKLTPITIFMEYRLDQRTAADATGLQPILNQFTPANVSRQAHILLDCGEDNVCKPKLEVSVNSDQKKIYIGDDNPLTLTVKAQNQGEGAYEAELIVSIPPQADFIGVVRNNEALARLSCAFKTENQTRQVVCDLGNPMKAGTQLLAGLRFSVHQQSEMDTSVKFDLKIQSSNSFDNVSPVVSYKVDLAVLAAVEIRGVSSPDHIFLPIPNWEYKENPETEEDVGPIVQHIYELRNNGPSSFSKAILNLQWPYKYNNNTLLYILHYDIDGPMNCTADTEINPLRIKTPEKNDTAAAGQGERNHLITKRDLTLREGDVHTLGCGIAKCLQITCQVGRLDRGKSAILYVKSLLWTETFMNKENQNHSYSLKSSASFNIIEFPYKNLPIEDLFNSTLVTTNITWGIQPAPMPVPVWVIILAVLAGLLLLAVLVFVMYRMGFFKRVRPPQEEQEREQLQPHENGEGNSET",
  "sequence (O54890 26-787, chain 2 of 2)": "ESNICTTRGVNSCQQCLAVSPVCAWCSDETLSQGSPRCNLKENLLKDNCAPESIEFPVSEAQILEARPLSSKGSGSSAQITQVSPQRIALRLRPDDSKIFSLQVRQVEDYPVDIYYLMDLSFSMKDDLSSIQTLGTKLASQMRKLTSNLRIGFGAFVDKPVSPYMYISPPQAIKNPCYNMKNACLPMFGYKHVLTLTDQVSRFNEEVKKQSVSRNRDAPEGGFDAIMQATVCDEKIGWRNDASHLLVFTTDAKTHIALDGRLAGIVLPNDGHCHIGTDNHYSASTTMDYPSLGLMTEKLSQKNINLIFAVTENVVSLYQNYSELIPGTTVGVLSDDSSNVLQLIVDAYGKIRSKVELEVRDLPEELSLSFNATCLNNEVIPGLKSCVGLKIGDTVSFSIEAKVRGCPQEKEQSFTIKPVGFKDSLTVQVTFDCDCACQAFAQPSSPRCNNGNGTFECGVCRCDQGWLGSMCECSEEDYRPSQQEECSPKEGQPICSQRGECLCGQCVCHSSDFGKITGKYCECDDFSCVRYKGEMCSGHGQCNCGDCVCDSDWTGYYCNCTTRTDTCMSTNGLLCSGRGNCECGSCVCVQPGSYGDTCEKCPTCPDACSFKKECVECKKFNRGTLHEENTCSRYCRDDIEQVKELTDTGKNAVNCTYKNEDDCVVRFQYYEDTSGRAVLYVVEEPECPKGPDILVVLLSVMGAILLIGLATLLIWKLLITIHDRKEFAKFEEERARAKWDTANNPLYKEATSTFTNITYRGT",
  "test": "SPR",
  "note": "[ ]: non-standard residue; d: D form.",
  "data": [
    {"binder": "cyclo(RGD[dY]K)", "note": "[c(RGDyK) peptide]", "values": [
      {"measurement": "Kd", "value": 17.1, "unit": "µM"}
    ]}
  ]
}
